Reference: article PMC6485186

Target: TNF-alpha (mouse) (Mus musculus, UniProt P06804 80-235)
Experiment: nitrocellulose filter binding with qPCR

Sequence of TNF-alpha (mouse) (P06804 80-235): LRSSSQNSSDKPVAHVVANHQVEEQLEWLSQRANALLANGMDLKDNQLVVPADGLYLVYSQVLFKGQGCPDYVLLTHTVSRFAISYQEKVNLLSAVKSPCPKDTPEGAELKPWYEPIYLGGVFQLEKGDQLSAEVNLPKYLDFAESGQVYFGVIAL

Binder: GCGCCACTACAGGGGAGCTGCCATTCGAATAGGTGGGCCGC (ssDNA) [aptTNF-alpha]
- binding result: binds
